Publication PMC8925968

Key:
PTBP1 (GST-SBP-PTBP1) [1] = target: T1, PTBP1 (GST-SBP-PTBP1) (UniProt P26599-1 1-531); test: fluorescence polarization
PTBP1 (GST-SBP-PTBP1) [2] = target: T1, PTBP1 (GST-SBP-PTBP1); test: bead pull-down with RT-qPCR

CUCUCUGAACACUCUCU (ssRNA) [Capzb intron oligo] was tested, and the Kd (PTBP1 (GST-SBP-PTBP1) [1]) was about 3 nM.

CUCUCUCUCUCUCUCUC (ssRNA) [Fnbp1 intron oligo] gave a Kd (PTBP1 (GST-SBP-PTBP1) [1]) of about 2 nM.

AUCUCUUGAUGCUAUCC (ssRNA) [Capzb exon oligo] was tested, and the Kd (PTBP1 (GST-SBP-PTBP1) [1]) was about 6 nM.

B1: Capzb intron WT transcript with adapters (ssRNA)
RNA: AGUUGUACAGUCCGACGAUGCGGUGGCCUUCUCCUGUCUCUGCCUUUGCCCACGGCUGCCAGGUUCUUGUUCGGCAUUGCUGUUGCUCUCUUGCUGUGGCUUCACCCUCUCUGAACACUCUCUGUAGUGCAGUCGUCGAGUGUCAACG
B1: binds (PTBP1 (GST-SBP-PTBP1) [2]).

For CUUUCUCUCAAGCU (ssRNA) [Fnbp1 exon oligo], the Kd (PTBP1 (GST-SBP-PTBP1) [1]) was about 8 nM.
